Here are results for 1 molecule from PMC6927192, “Comparative phosphorylation map of Dishevelled 3 links phospho-signatures to biological outputs” (Cell Communication and Signaling : CCS, 2019).

For this experiment, the target named is T1, Human DVL2 PDZ domain (aa 265–361) (human, UniProt O14641 265-361).
T1 construct: Dishevelled 2 (DVL2), human, PDZ domain, residues 265-361; 15N-labelled for the NMR titration; The pET construct has a TEV cleavage site after the tags; also called wt PDZ; wildtype PDZ; source: E. coli BL21-DE3(RIL), purified
T1 sequence (looked up): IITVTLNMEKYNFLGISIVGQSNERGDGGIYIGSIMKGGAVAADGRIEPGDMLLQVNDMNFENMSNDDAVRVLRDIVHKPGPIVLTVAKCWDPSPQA
The experiment is described as follows: NMR titration; series of 1H-15N HSQC spectra, 100 μM 15N-labeled PDZ (wild type or phosphomimicking mutant) with increasing amounts of DVL_C peptide (stock 800 μM); proteins stored in 20 mM Hepes (pH 6.8), 50 mM KCl; 700 MHz; qualitative analysis. The settings on record: both partners purified.

Square brackets hold non-standard residues; d marks the D form. Ends that are not written are not given here. pS = N[C@@H](COP(=O)(O)O)C(=O)O

B1: DVL3_C peptide 698–716 with phosphorylated S700 (peptide, UniProt Q92997 698-716, looked up)
peptide: RQ[pS]FRMAMGNPSEFFVDVM
notes: Dishevelled 3 (DVL3), human, C-terminal residues 698-716; also called DVL3 C-terminal peptide; source: bought: KareBay Biochem, Inc. (New Jersey, USA)
For B1, the binding result is given as “binds”.
